Source: publication PMC6791878, “Evaluation of integrin αvβ6 cystine knot PET tracers to detect cancer and idiopathic pulmonary fibrosis” (Nature Communications, 2019)
Like-named read-outs stand apart in the source and are kept apart here.

Tested on: pancreatic, cervical and lung cancer
Details: one patient, Fig 4C
Protocol: The administered dose was 55.5–96.2MBq (1.5–2.6 mCi). The scan (6 bed positions, 2 min bed^−1) covered an area that included the top of the skull to the middle of the femur. OSEM was applied for reconstruction. […] The CT scan (140 kV, 35 mA, pitch of 1:1, layer of 5 mm thickness; layer spacing of 3 mm, 512*512 matrix, field of view of 70 cm) also covered the top of the skull to the middle of the femur. […] Immediately upon completion of the first scan, the second whole-body static PET data was acquired. Sequentially, multiple whole-body static PET scans were acquired, one by one, from 0 to 75 min.
Upon co-registration of the PET and CT images, the CT images were used to determine regions of interest for the organs or tissues reported in the manuscript. These ROIs were applied to the PET images of the brain, pituitary gland, breast, lower and upper large intestine, small intestine, stomach, pancreas, heart wall, liver, lung, muscle, red marrow, bone, skin, and thyroid gland. For high uptake organs such as the kidneys, bladder and for the whole body, threshold-based segmentation of PET images were used to determine a close-fitting ROI around the entire organ or whole body. In order to determine accuracy, these PET-derived ROIs were compared to the CT overlay for a close match.

CC[C@H](C)[C@@H]1NC(=O)[C@@H](NC(=O)CNC(=O)CCC(C(=O)O)N2CCN(CC(=O)O)CCN(CC(=O)O)CC2)CSSC[C@@H]2NC(=O)[C@H](C)NC(=O)CNC(=O)[C@@H]3CCCN3C(=O)[C@@H]3CSSC[C@@H](C(=O)NCC(N)=O)NC(=O)[C@H](Cc4ccc(O)cc4)NC(=O)CNC(=O)[C@H](CC(N)=O)NC(=O)CNC(=O)[C@H](CCCNC(=N)N)NC(=O)[C@H](CSSC[C@H](NC(=O)[C@H](CCCNC(=N)N)NC(=O)[C@H](Cc4ccccc4)NC(=O)[C@H](CC(C)C)NC(=O)[C@H](CC(C)C)NC(=O)[C@H]([C@@H](C)O)NC(=O)CNC(=O)[C@H](CC(C)C)NC(=O)[C@H](CC(=O)O)NC(=O)[C@H]([C@@H](C)O)NC(=O)[C@H](CCCNC(=N)N)NC(=O)CNC(=O)[C@H](CC(N)=O)NC(=O)[C@H](CC(C)C)NC1=O)C(=O)N[C@@H](CCCNC(=N)N)C(=O)N[C@@H](CCCNC(=N)N)C(=O)N[C@@H](CC(=O)O)C(=O)N[C@@H](CO)C(=O)N[C@@H](CC(=O)O)C(=O)N3)NC(=O)[C@H]([C@@H](C)CC)NC2=O (stereo partly shown) [[^68Ga]NODAGA-R01-MG, metal not drawn]
ROI uptake Bl (bladder) (9 min p.i.): 1.885
ROI uptake Bn (osteogenic cells) (9 min p.i.): 0.4959
ROI uptake Br (brain) (9 min p.i.): 0.05775
ROI uptake Brs (breast) (9 min p.i.): 0.428
ROI uptake HC (heart contents) (9 min p.i.): 1.158
ROI uptake HW (heart wall) (9 min p.i.): 0.7507
ROI uptake LLI (lower large intestine) (9 min p.i.): 1.4
ROI uptake Ln (lung) (9 min p.i.): 0.3091
ROI uptake Lv (liver) (9 min p.i.): 0.8628
ROI uptake Ms (muscle) (9 min p.i.): 0.6964
ROI uptake Pn (pancreas) (9 min p.i.): 1.576
ROI uptake Pt (pituitary gland) (9 min p.i.): 2.269
ROI uptake RM (red marrow) (9 min p.i.): 0.2412
ROI uptake SI (small intestine) (9 min p.i.): 6.974
ROI uptake Sk (skin) (9 min p.i.): 0.09851
ROI uptake Sp (spleen) (9 min p.i.): 0.7065
ROI uptake St (stomach) (9 min p.i.): 2.524
ROI uptake TB (total body) (9 min p.i.): 0.6998
ROI uptake Tm (thymus) (9 min p.i.): 0.7337
ROI uptake Tr (thyroid) (9 min p.i.): 1.94
ROI uptake ULI (upper large intestine) (9 min p.i.): 1.923
ROI uptake Bl (bladder) (22 min p.i.): 6.4
ROI uptake Bn (osteogenic cells) (22 min p.i.): 0.4058
ROI uptake Br (brain) (22 min p.i.): 0.03902
ROI uptake Brs (breast) (22 min p.i.): 0.5151
ROI uptake HC (heart contents) (22 min p.i.): 0.7844
ROI uptake HW (heart wall) (22 min p.i.): 0.4761
ROI uptake LLI (lower large intestine) (22 min p.i.): 1.495
ROI uptake Ln (lung) (22 min p.i.): 0.3044
ROI uptake Lv (liver) (22 min p.i.): 0.7375
ROI uptake Ms (muscle) (22 min p.i.): 0.6868
ROI uptake Pn (pancreas) (22 min p.i.): 1.214
ROI uptake Pt (pituitary gland) (22 min p.i.): 1.986
ROI uptake RM (red marrow) (22 min p.i.): 0.1015
ROI uptake SI (small intestine) (22 min p.i.): 7.153
ROI uptake Sk (skin) (22 min p.i.): 0.09365
ROI uptake Sp (spleen) (22 min p.i.): 0.5971
ROI uptake St (stomach) (22 min p.i.): 2.337
ROI uptake TB (total body) (22 min p.i.): 0.6751
ROI uptake Tm (thymus) (22 min p.i.): 0.7375
ROI uptake Tr (thyroid) (22 min p.i.): 0.7922
ROI uptake ULI (upper large intestine) (22 min p.i.): 1.432
ROI uptake Bl (bladder) (36 min p.i.): 8.426
ROI uptake Bn (osteogenic cells) (36 min p.i.): 0.4395
ROI uptake Br (brain) (36 min p.i.): 0.03531
ROI uptake Brs (breast) (36 min p.i.): 0.6278
ROI uptake HC (heart contents) (36 min p.i.): 0.722
ROI uptake HW (heart wall) (36 min p.i.): 0.4798
ROI uptake LLI (lower large intestine) (36 min p.i.): 1.238
ROI uptake Ln (lung) (36 min p.i.): 0.3094
ROI uptake Lv (liver) (36 min p.i.): 0.6906
ROI uptake Ms (muscle) (36 min p.i.): 0.7579
ROI uptake Pn (pancreas) (36 min p.i.): 1.296
ROI uptake Pt (pituitary gland) (36 min p.i.): 2.22
ROI uptake RM (red marrow) (36 min p.i.): 0.2108
ROI uptake SI (small intestine) (36 min p.i.): 6.296
ROI uptake Sk (skin) (36 min p.i.): 0.08072
ROI uptake Sp (spleen) (36 min p.i.): 0.426
ROI uptake St (stomach) (36 min p.i.): 2.242
ROI uptake TB (total body) (36 min p.i.): 0.6996
ROI uptake Tm (thymus) (36 min p.i.): 0.6323
ROI uptake Tr (thyroid) (36 min p.i.): 0.7534
ROI uptake ULI (upper large intestine) (36 min p.i.): 1.834
ROI uptake Bl (bladder) (49 min p.i.): 9.366
ROI uptake Bn (osteogenic cells) (49 min p.i.): 0.4088
ROI uptake Br (brain) (49 min p.i.): 0.04004
ROI uptake Brs (breast) (49 min p.i.): 0.5978
ROI uptake HC (heart contents) (49 min p.i.): 0.5978
ROI uptake HW (heart wall) (49 min p.i.): 0.3526
ROI uptake LLI (lower large intestine) (49 min p.i.): 1.426
ROI uptake Ln (lung) (49 min p.i.): 0.3066
ROI uptake Lv (liver) (49 min p.i.): 0.6029
ROI uptake Ms (muscle) (49 min p.i.): 0.7154
